Consider two molecules from article PMC12407084.

This test concerns the target Taxol-stabilized microtubules polymerized from bovine brain tubulin, Q6B856. In words: fluorescence microscopy of microtubule decoration by GFP-tagged protein. To be noted: chain shown with the change; 100 nM GFP-tagged Ndc80c Bonsai protein; rhodamine-labeled taxol-stabilized microtubules; parent: est. 12000; read off a plot.

Where a chain is given by its changes, count along the chain named. Numbers in names are those of the source.

Taxol-stabilized microtubules polymerized from bovine brain tubulin, Q6B856, sequence (chain, as listed by the source, chain 1 of 2): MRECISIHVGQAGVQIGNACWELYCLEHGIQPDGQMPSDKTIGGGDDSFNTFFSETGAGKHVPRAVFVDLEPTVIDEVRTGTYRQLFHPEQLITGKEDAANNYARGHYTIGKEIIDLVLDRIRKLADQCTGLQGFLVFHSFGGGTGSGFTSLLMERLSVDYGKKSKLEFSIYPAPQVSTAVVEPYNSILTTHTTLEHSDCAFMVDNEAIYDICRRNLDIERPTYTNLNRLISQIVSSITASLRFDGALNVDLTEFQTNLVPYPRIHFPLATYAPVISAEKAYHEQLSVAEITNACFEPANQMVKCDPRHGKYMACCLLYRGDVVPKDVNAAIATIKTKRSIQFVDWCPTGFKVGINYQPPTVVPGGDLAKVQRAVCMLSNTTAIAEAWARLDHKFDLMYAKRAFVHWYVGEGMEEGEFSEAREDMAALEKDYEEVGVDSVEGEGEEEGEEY
Taxol-stabilized microtubules polymerized from bovine brain tubulin, Q6B856, sequence (Q6B856 whole entry, chain 2 of 2): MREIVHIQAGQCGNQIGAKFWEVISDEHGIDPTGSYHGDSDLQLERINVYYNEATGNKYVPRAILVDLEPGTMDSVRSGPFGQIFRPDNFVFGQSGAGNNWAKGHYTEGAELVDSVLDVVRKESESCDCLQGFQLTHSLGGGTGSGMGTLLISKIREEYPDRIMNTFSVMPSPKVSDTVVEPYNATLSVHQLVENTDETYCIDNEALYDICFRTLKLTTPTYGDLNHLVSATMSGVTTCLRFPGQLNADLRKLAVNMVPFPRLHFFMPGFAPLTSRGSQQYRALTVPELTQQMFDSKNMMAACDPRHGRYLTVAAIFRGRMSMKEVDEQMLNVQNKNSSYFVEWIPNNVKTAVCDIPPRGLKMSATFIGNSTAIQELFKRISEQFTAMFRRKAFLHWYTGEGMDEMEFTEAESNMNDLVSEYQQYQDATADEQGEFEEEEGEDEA

B1: Human Ndc80c Bonsai Ndc80-GFP (WT) Nuf2:K33D; Nuf2:K41D; Nuf2:K115D (protein)
chain 1: MKRSSVSSGGAGRLSMQELRSQDVNKQGLYTPQTKEKPTFGKLSINKPTSERKVSLFGKRTSGHGSRNSQLGIFSSSEKIKDPRPLNDKAFIQQCIRQLCEFLTENGYAHNVSMKSLQAPSVKDFLKIFTFLYGFLCPSYELPDTKFEEEVPRIFKDLGYPFALSKSSMYTVGAPHTWPHIVAALVWLIDCIKIHTAMKESSPLFDDGQPWGEETEDGIMHNKLFLDYTIKCYESFMSGADSFDEMNAELQSKLKDLFNVDAFKLESLEAKNRALNEQIARLEQERSTANKANAERLKRLQKSADLYKDRLGLEIRKIYGEKLQFIFTNIDPKNPESPFMFSLHLNEARDYEVSDSAPHLEGLAEFQENVRKTNNFSAFLANVRKAFTATVYN
chain 2: METLSFPRYNVAEIVIHIRNKILTGADGKNLTDNDLYPNPDPEVLHMIYMRALQIVYGIRLEHFYMMPVNSEVMYPHLMEGFLPFSNLVTHLDSFLPICRVNDFETADILCPKADRTSRFLSGIINFIHFREACRETYMEFLWQYKSSADKMQQLNAAHQEALMKLERLEKEVDEDTTVTIPSAVYVAQLYHQVSKIEWDYECEPGMVKGIHHGPSVAQPIHLDSTQLSRKFISDYLWSLVDTEW
As to B1, the response was found to be 160 a.u.

B2: Human Ndc80c Bonsai Ndc80-GFP (WT) Hec1:K166D (protein)
chain 1: B1 chain 1 with K166D
chain 2: B1 chain 2 with D33K, D41K, D115K
In the case of B2, the response is 400 a.u.
